Data: publication PMC9095892 (The Journal of Biological Chemistry, 2022)

B1: Streptomyces griseus StrM (TDP-sugar 3'',5''-epimerase, RmlC ortholog) (enzyme, UniProt P29783 1-200, looked up)
chain: MRPLSVQGAWLSETRAFADDRGEFQELYSARSLRGALGYDPGVAQVNRSVSRRGVLRGVHFAQLPPSQAKYVTCLSGAVLDVVVDIRTGSPTYRAWEAVRLDDPHRSLYVEAGLGHSFMALTDDAVVVYLTSQGYAAGREHGVHPLDPDLGIAWPDGIEPVLSEKDRQAPGIAEMERRGLLPDYEECLAFRRSLCERGTG
notes: also called SgStrM

What was measured:
[1] = system: Cc1cn([C@H]2C[C@H](O)[C@@H](COP(=O)(O)OP(=O)(O)O[C@H]3O[C@H](C)C(=O)[C@H](O)[C@H]3O)O2)c(=O)[nH]c1=O; test: purified protein; conditions: pH 7.5
crystal structure = target: the molecule itself; test: crystal structure

| Molecule | Km [1] | kcat/Km [1] | binding result (crystal structure) |
| --- | --- | --- | --- |
| EvaD (AoEvaD) (Amycolatopsis orientalis) | 632 ± 98 µM | 630 ± 70 M⁻¹ s⁻¹ |  |
| RmlC (EcRmlC; E. coli RfbC) (Escherichia coli K-12) | 830 ± 40 µM | 6600 ± 200 M⁻¹ s⁻¹ |  |
| StrM (SgStrM) (Streptomyces griseus) | 600 ± 40 µM | 9100 ± 400 M⁻¹ s⁻¹ |  |
| B1 |  |  | binds |
